Paper PMC6179999

What was measured:
P27467 [1] = test: AUC; AUC-FDS of GFP-Wnt3a in culture medium with mock-treated serum; peak areas normalised by the whole area
P27467 [2] = test: AUC; AUC-FDS; conditioned medium of L cells secreting GFP-Wnt3a co-cultured with HEK293 cells secreting mouse sFRP2
P27467 [3] = test: AUC; AUC-FDS of GFP-Wnt3a in culture medium with serum from which afamin was immuno-depleted before the cultivation; peak areas normalised by the whole area

GFP-tagged mouse Wnt3a secreted from stably transformed mouse L cells
relative area of the HMW peaks, mock-treated serum (P27467 [1]): that of the HMW peaks was increased from 51.1 ± 4.8% to 69.6 ± 1.2% | relative area of HMW complex peaks, with sFRP2 (P27467 [2]): relative area of HMG peaks was decreased from 46.4 ± 0.8% to 33.6 ± 2.9% by the addition of sFRP2 | relative area of the HMW peaks, afamin pre-depleted serum (P27467 [3]): that of the HMW peaks was increased from 51.1 ± 4.8% to 69.6 ± 1.2%
